The values below come from the supplement of paper PMC10598134.

± gives the standard deviation.

The nature of the data set: collision cross section of modified peptide (TIMS, N2, iRT-aligned); higher = larger / more extended gas-phase ion. The gist of the method: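 On a timsTOF Pro/HT (dda-PASEF, nitrogen, ~2.4 mbar), synthetic peptide pools were analysed after a 120-min nanoflow C18 separation at 60 °C and identified in MaxQuant. Three reference ions served for 1/K0 calibration, with run-wise alignment to the median iRT peptide deviation. Collision cross section comes from the Mason-Schamp equation, using the most abundant feature per charge state averaged over 1–3 technical replicates.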

Where [1] appears, read: charge state: 3, modification: Trimethyl (K).
Where [2] appears, read: charge state: 2, modification: hydroxyisobutyryl.
[3] abbreviates: charge state: 3, modification: hydroxyisobutyryl.
[4] abbreviates: charge state: 2, modification: Acetyl (K).
The mark [5] stands for this setting: charge state: 2, modification: Butyryl.
Setting [6] is: charge state: 2, modification: Crotonyl.
Setting [7] is: charge state: 2, modification: Dimethyl (K).
The mark [8] stands for this setting: charge state: 3, modification: Dimethyl (K).
Where [9] appears, read: charge state: 2, modification: Formyl.
Setting [10] is: charge state: 2, modification: Glutarylation.
The mark [11] stands for this setting: charge state: 2, modification: GlyGly (K).
[12] abbreviates: charge state: 3, modification: GlyGly (K).
Setting [13] is: charge state: 2, modification: Malonyl.
Where [14] appears, read: charge state: 2, modification: Methyl (K).
Where [15] appears, read: charge state: 3, modification: Methyl (K).
The mark [16] stands for this setting: charge state: 2, modification: Propionyl.
Setting [17] is: charge state: 2, modification: Succinyl.
Where [18] appears, read: charge state: 2, modification: Trimethyl (K).
[19] abbreviates: charge state: 2, modification: Citrullination (R).
Where [20] appears, read: charge state: 3, modification: Citrullination (R).
[21] abbreviates: charge state: 3, modification: Methyl (R).
The mark [22] stands for this setting: charge state: 2, modification: Hydroxyproline.
Where [23] appears, read: charge state: 3, modification: Hydroxyproline.

Consider “GEVGAGAGPGAQAGPSAKR [_GEVGAGAGPGAQAGPSAK(Trimethyl (K))R_]”, for which, under setting [1], the collision cross section worked out at 489.76 ± 5.2 Å².

On to “GEVGAGAGPGAQAGPSAKR [_GEVGAGAGPGAQAGPSAK(hydroxyisobutyryl)R_]”, for which the collision cross section runs as follows: under setting [2], 426.95 ± 0.56 Å²; under setting [3], 486.12 ± 1.9 Å².

In the case of GEVQVSDKER [_GEVQVSDK(Acetyl (K))ER_], the collision cross section under setting [4] worked out at 356.44 ± 0.96 Å².

For the substance GEVQVSDKER [_GEVQVSDK(Butyryl)ER_], the collision cross section under setting [5] came out at 363.29 ± 0.49 Å².

Under setting [6], GEVQVSDKER [_GEVQVSDK(Crotonyl)ER_] registered a collision cross section of 363.4 ± 0.8 Å².

With GEVQVSDKER [_GEVQVSDK(Dimethyl (K))ER_], the collision cross section under setting [7] is given as 362.93 ± 0.58 Å² and the collision cross section under setting [8] is reported as 422.58 ± 1.6 Å².

As to GEVQVSDKER [_GEVQVSDK(Formyl)ER_], the collision cross section under setting [9] is reported as 353.55 ± 2.5 Å².

Substance “GEVQVSDKER [_GEVQVSDK(Gluratylation)ER_]” showed a collision cross section under setting [10] of 368.37 ± 8.3 Å².

With GEVQVSDKER [_GEVQVSDK(GlyGly (K))ER_], the collision cross section runs as follows: under setting [11], 370.72 ± 1.1 Å²; under setting [12], 432.88 ± 2.5 Å².

In turn, GEVQVSDKER [_GEVQVSDK(Malonyl)ER_] showed a collision cross section under setting [13] of 362.93 ± 1.2 Å².

Consider GEVQVSDKER [_GEVQVSDK(Methyl (K))ER_], for which the collision cross section under setting [14] is given as 360.9 ± 0.67 Å² and the collision cross section under setting [15] is 436.39 ± 5.2 Å².

Under setting [16], GEVQVSDKER [_GEVQVSDK(Propionyl)ER_] registered a collision cross section of 360.54 ± 0.33 Å².

With GEVQVSDKER [_GEVQVSDK(Succinyl)ER_], under setting [17], the collision cross section is 361.33 ± 0.24 Å².

Take “GEVQVSDKER [_GEVQVSDK(Trimethyl (K))ER_]”: the collision cross section under setting [18] came to 366.73 ± 1.1 Å².

As to “GEVQVSDKER [_GEVQVSDK(hydroxyisobutyryl)ER_]”, under setting [2], the collision cross section amounted to 366.78 ± 0.27 Å².

On to GEYFGEK [_GEY(Nitro (Y))FGEK_], for which the collision cross section (charge state: 2, modification: Nitro (Y)) was found to be 309.86 ± 0.71 Å².

Take GEYFGEK [_GEY(Phospho (Y))FGEK_]: the collision cross section (charge state: 2, modification: Phospho (Y)) was found to be 321.93 ± 0.65 Å².

With “GFALVGVGSEASSKK [_GFALVGVGSEASSK(Acetyl (K))K_]”, the collision cross section reads like this: under setting [4], 429.07 ± 17 Å²; (charge state: 3, modification: Acetyl (K)) 499.93 ± 0.98 Å².

For the substance “GFALVGVGSEASSKK [_GFALVGVGSEASSK(Biotin)K_]”, the collision cross section reads like this: (charge state: 2, modification: Biotin) 423.88 ± 1.4 Å²; (charge state: 3, modification: Biotin) 494.71 ± 0.97 Å².

“GFALVGVGSEASSKK [_GFALVGVGSEASSK(Butyryl)K_]”: the collision cross section reads like this: under setting [5], 447.9 ± 0.87 Å²; (charge state: 3, modification: Butyryl) 499.86 ± 2.6 Å².

Consider “GFALVGVGSEASSKK [_GFALVGVGSEASSK(Crotonyl)K_]”, for which the collision cross section is reported as 448.38 ± 0.94 Å² under setting [6] and 499.08 ± 1.9 Å² (charge state: 3, modification: Crotonyl).

As to “GFALVGVGSEASSKK [_GFALVGVGSEASSK(Dimethyl (K))K_]”, the collision cross section came to 439.69 ± 1.2 Å² under setting [7] and 485.09 ± 1.2 Å² under setting [8].

For the substance “GFALVGVGSEASSKK [_GFALVGVGSEASSK(Formyl)K_]”, the collision cross section came out at 409.61 ± 2 Å² under setting [9] and 498.32 ± 1.8 Å² (charge state: 3, modification: Formyl).

Consider “GFALVGVGSEASSKK [_GFALVGVGSEASSK(Gluratylation)K_]”, for which the collision cross section reads like this: under setting [10], 416.74 ± 0.49 Å²; (charge state: 3, modification: Glutarylation) 499.26 ± 3.6 Å².

Turning to “GFALVGVGSEASSKK [_GFALVGVGSEASSK(GlyGly (K))K_]”, the collision cross section worked out at 452.76 ± 1.4 Å² under setting [11] and 507.31 ± 14 Å² under setting [12].

With “GFALVGVGSEASSKK [_GFALVGVGSEASSK(Malonyl)K_]”, the collision cross section under setting [13] came to 414.22 ± 0.58 Å².

As to “GFALVGVGSEASSKK [_GFALVGVGSEASSK(Methyl (K))K_]”, the collision cross section runs as follows: under setting [14], 437.53 ± 2.3 Å²; under setting [15], 496.87 ± 4 Å².

In turn, “GFALVGVGSEASSKK [_GFALVGVGSEASSK(Propionyl)K_]” showed a collision cross section under setting [16] of 411.51 Å².

Take “GFALVGVGSEASSKK [_GFALVGVGSEASSK(Succinyl)K_]”: the collision cross section reads like this: under setting [17], 413.38 ± 0.54 Å²; (charge state: 3, modification: Succinyl) 497.13 ± 2.5 Å².

For “GFALVGVGSEASSKK [_GFALVGVGSEASSK(Trimethyl (K))K_]”, the collision cross section is, setting by setting: under setting [18], 444.52 ± 0.57 Å²; under setting [1], 489.21 ± 1.8 Å².

For “GFALVGVGSEASSKK [_GFALVGVGSEASSK(hydroxyisobutyryl)K_]”, the collision cross section under setting [2] is 419.49 ± 2.2 Å² and the collision cross section under setting [3] came out at 502.54 ± 2.1 Å².

In the case of “GFCFITYTDEEPVKK [_GFCFITYTDEEPVK(Acetyl (K))K_]”, the collision cross section under setting [4] came out at 451.75 ± 3.1 Å².

For “GFCFITYTDEEPVKK [_GFCFITYTDEEPVK(Butyryl)K_]”, under setting [5], the collision cross section is recorded as 458.8 ± 0.51 Å².

“GFCFITYTDEEPVKK [_GFCFITYTDEEPVK(Formyl)K_]”: the collision cross section under setting [9] came to 450.51 Å².

As to “GFCFITYTDEEPVKK [_GFCFITYTDEEPVK(Gluratylation)K_]”, the collision cross section under setting [10] is reported as 471.64 ± 1.5 Å².

“GFCFITYTDEEPVKK [_GFCFITYTDEEPVK(GlyGly (K))K_]” yielded a collision cross section under setting [11] of 487.35 ± 2.6 Å² and a collision cross section under setting [12] of 525.77 Å².

As for “GFCFITYTDEEPVKK [_GFCFITYTDEEPVK(Malonyl)K_]”, under setting [13], the collision cross section worked out at 452.98 ± 0.65 Å².

On to “GFCFITYTDEEPVKK [_GFCFITYTDEEPVK(Methyl (K))K_]”, for which the collision cross section is, setting by setting: under setting [14], 460.43 ± 0.33 Å²; under setting [15], 513.09 ± 2.7 Å².

As for “GFCFITYTDEEPVKK [_GFCFITYTDEEPVK(Succinyl)K_]”, the collision cross section under setting [17] amounted to 465.85 ± 1.1 Å².

Regarding “GFCFITYTDEEPVKK [_GFCFITYTDEEPVK(Trimethyl (K))K_]”, under setting [18], the collision cross section was found to be 480.23 Å².

“GFCFITYTDEEPVKK [_GFCFITYTDEEPVK(hydroxyisobutyryl)K_]” showed a collision cross section under setting [2] of 453.41 ± 0.8 Å².

“GFGRGGAESHTFK [_GFGR(Citrullination (R))GGAESHTFK_]” displayed a collision cross section under setting [19] of 413.94 ± 1 Å² and a collision cross section under setting [20] of 465.74 ± 2.2 Å².

The substance “GFGRGGAESHTFK [_GFGR(Methyl (R))GGAESHTFK_]” gave a collision cross section under setting [21] of 473.29 ± 3 Å².

As to “GFLQPPPLRQPR [_GFLQPPPLR(Citrullination (R))QPR_]”, the collision cross section under setting [19] came to 391.62 ± 0.23 Å² and the collision cross section under setting [20] is 460.68 Å².

“GFLQPPPLRQPR [_GFLQPPPLR(Methyl (R))QPR_]” came in with a collision cross section (charge state: 2, modification: Methyl (R)) of 399.75 Å² and a collision cross section under setting [21] of 450.22 ± 3.5 Å².

“GFPGAPGLPGLK [_GFPGAP(Hydroxyproline)GLPGLK_]” showed a collision cross section under setting [22] of 358.41 ± 0.79 Å².

Substance “GFPGAPGLPGLKGHR [_GFP(Hydroxyproline)GAPGLPGLKGHR_]” had a collision cross section under setting [23] of 478.5 ± 1.8 Å².

As for GFPGIQGRK [_GFP(Hydroxyproline)GIQGRK_], the collision cross section by setting is: under setting [22], 339.07 Å²; under setting [23], 407.07 Å².

In the case of “GGFQNRGGGSGGGGNYR [_GGFQNR(Citrullination (R))GGGSGGGGNYR_]”, the collision cross section reads like this: under setting [19], 403.21 ± 0.81 Å²; under setting [20], 503.84 Å².
